# According to the nanobody polyreactivity screen of Harvey et al. (2022):
# Test: yeast display, Sf9 membrane polyspecificity reagent, FACS + sequencing; frameworks hold sequencing errors
# Procedure, shortened: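 A synthetic nanobody library was expressed on Saccharomyces cerevisiae BJ5465 by galactose induction for 36–48 hours. The library was stained for 1 hour at 4 °C with 10% biotinylated, detergent-solubilized Sf9 membrane reagent and enriched with streptavidin microbeads before FACS. Low and high (top ~1%) gates were set on anti-HA fluorescence for expression and streptavidin fluorescence for reagent binding, and each polyreactivity label reflects the gate of origin.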
row,Sequence,polyreactivity (PSR sort gate)
1,QVQLVESGGGLVQAGGSLRLSCAASGRILKWNAMGWYRQAPGKERELVAAISQSGGSTYYADSVKGRFTISRDNAKNTVYLQMNSLKPEDTAVYYCATSGDWWGFRYDYWGQGTQVTVSS,low polyreactivity
2,QVQLVESGGGLVQAGGSLRISCAASGSTFSSYAMGWYRQAPGKERELVAAISRSGDRTYYADSVKGRFTISRDNAEKTVYFQMNSLKPEDTAFYYCNTVYINRVTNLYDYWGQGTQVTVSS,high polyreactivity
3,QVQLVESGGGLVQAGGSLRLSCAASGSTLRWYAMGWYRQAPGKERELVARISWTTGSTYYADSVKGRFTISRDNAKNTVYLQMNSLKPEDTAVYYCAKGKKSSRSGIYNYWGQGTQVTVSS,high polyreactivity
4,QVQLVESGGGLVQAGGSLRLSCAASGSIFDNYAMGWYRQAPGKEREFDAGISWSGGSTRYADSVKGRFTISRDNAKNTVYLQMNSLKPEDTAVYYCNTGYGLVDFLYGYYYWGQGTQVTVSS,low polyreactivity
5,QVHLVESGGGLVQAGGRLRLSCAASGGTFYYNAMGRYRHATGKERELVAGITQSGGNTYYADSVKGRFTISRDNAKNTVYLHMNSLKPEDTVVYYCAARIRGTWKYGYWGQGTQVTVSS,low polyreactivity
6,QVQLVDSGGGLVQAGGRLRLSCAASGVTIQPNARGWYRQAPGKERELVPSISWSDGSTYYADSVKGRFTISRDNAKNTVFLQMNSLKPEDTAVYYCAADFTYYDPPYRDYNYESWGQGTQVTVSS,low polyreactivity
7,QVQLVESGGGLVKAGGSLRLSCAASGRIFYLNAMGWYRQAPGKERELVAGIRKRGGSTYYADSVKGRFTISRDNAKNTVYLQMNSLKPEDTAVYYSAGQPALTYRFYYWGQGTQVTVSS,high polyreactivity
8,QVQLVESGGGLVQAGGSLRLSCAASGFTFRRYAMGWYRQAPGKERELVAAISRSGGRTYYADSVKGRFTISRDNAKNTVYLQMNSLKPEDTAVYYCAARYFKPGGAYDSWGQGTQVTVSS,high polyreactivity
9,QVQLVESGGGLVQAGGSLRLSCAASGTIFQSNAMGWYRQAPGKERELVAAISSSGGRTYYADSVKGRFTISRDNAKNTVYLQMNSLKPEDTAVYYCADLGYPDGGWGQGTQVTVSS,low polyreactivity
10,QVQLVESGGGLVQAGGSLRLSCAAYGRTFPLYAMGWYRQAPGKEREFVAAISSRGGRTYYADSVKGRFTISRDNEKNTVYLQMNSLKPEDTAVYYCNARYVHDGFDYWGQGTQVTVSS,high polyreactivity
11,QVQLVESGVCLVQAGGSLRLICAASGNIFYGYAMGWYRQAPGKESELVAAISTGGSTNYADSVKGRFTISRDNAKNTVYLQMNSLKPVDTAVYYCASDDPQQYGVRQLGYDSWGQVTQVTVSS,low polyreactivity
12,QVQLVESGGGLVQAGGSLRLSCAASGFNFSYNAMGWYRQAPGKERELTYADSVKGRFTISRDNAKNTVYLQMNSLKLEDTAVYYCAAGEYGRQYDGDYWGQGTQVTVSS,low polyreactivity
13,QVQLVESGGGLVQAGGSLRLSCAASGRTFYGYAMGWYRQAPGKERELVAAISWTGGRTYYADSVKGRFTISRDNAKNTVYLQMNSLKPEDTAVYYCNARRRGDSGDGYIYGYWGQGTQVTVSS,high polyreactivity
14,QVQLVESGGGLVQAGGSHRLSCAASGRTFPVYAMGWYRHAPGKERELVAAIRGRSVRTYYADSVKGRFTISRDNAQNSVYLQMNSLKPEDTAVYYCAAYYFNPGMDYWGQGTQVTVSS,high polyreactivity
15,QVQLVESGGGLVQAGGSLRLSCAASGSTFAYYTMGWYRQAPGKERELVAAISRRGGSTYYADSVKGRFTISRDNAKNTVYLQMNSLKPEDTAVYYCAASFKGPGYYRYYYWGQGTQVTVSS,high polyreactivity
16,QVQLVESGGGLVQAGGSLRLSCAASGSIFFGYAMGSYRQAPGKERELVAAISTRGGSTYYADSVKGRFTISRDNAKNTFYLQMNSLKPEDTAVYYSAADYLDSTYGYVYGWDDYWGQGTQVTVSS,low polyreactivity

row,Sequence,polyreactivity (PSR sort gate)
1,QVQLVESGGGLVQAGGSLRLSCAASGSTFSGSVMGWDRPAPGKERELVAAISNRGGRTYYADSVKGRFTISRDNAKNTVYLQMNSLKPEDTAVYYCAARGVVDAGRTNRPYDYWGQGTQVTVSS,low polyreactivity
2,QVQLVESGGGLVQAGGSLRLSCAASGITFNPNAMGLYRQAPGKERELVAVITYRGGSTYYADSVKGRFTISRDNAKNTVYLQMNSLKPEDTAVYYCAAQYIGWHLYWYDYWGQGTQVTVSS,low polyreactivity
3,QVQLVESGGGLVQAGGGLRLSCSASGYIFGYTAMGWYRQAPGKERELVAAISYSGGSTYYADSVKGRFTISRDNAKNTVYLQMNSLKPVDTAVYYCAAYRKGTWPGYLGVGYDYWGQGTQVTVSS,high polyreactivity
4,QVQLVESGGGLVQAGGSLRLSCAASGRTFRRYAMGWYRQAPGKERELVAAISSSSGTTYYADSVKGRFTISRDNEKNTDYLQMNSLKPEDTAVYYCAAYSRYTTRQYDYWGQGTQVTVSS,high polyreactivity
5,QVQLVESGGGLVQAGGSLRLSCAASGNTFYGYAMGWYRQAPGKERELVASITLSGDSTYYADSVKGRFTISRDNAMNTVYLQMNSLKPEYTAVYYCAGVYTYPLGYYHYTYDYWGQGTQVTVSS,low polyreactivity
6,QVQLVESGGGLVQAGGSLRLSCAASGRIFGYNAMGWYRQAPGKERELVASITRGGSTNYADSVKGRFTISRDNAKNTVYLQMNSLKPEDTAVYYCATRWPHYGGYYYWGQGTQVTVSS,high polyreactivity
7,QVQLVESGGGLVQAGGSLRLSCAASGGIFQGYAMGWYRQAPGKERELVAGITSRSGSTYYADSVKGRFTISRDNAKNTVYLQMNSLKPEDTAVYYCAVRVYRSYGYWGQGTQVTVSS,high polyreactivity
8,QVQLVESGGGLVQAGGSLRLSCAASGSTFRYYAMGWYRQAPGKERELVAAISSSGGSTYYADSVKGRFTISRDNAKNTVYLQMNSLKPEDTAVYYCAARHYSYRVEYDYWGQGTQVTVSS,high polyreactivity
9,QVQLVESGGGLVQAGGSLRLSCAASGITFKYYTMGWYRQAPGKERELVAAITADTGTTYYADSVKGRFTISRDNAKNTVYLQMNSLKPEDTAVYYCATRDVFYDDDYWGQGTQVTVSS,high polyreactivity
10,QVQLVESGGGLVQAGGSLRLSCAASGNILLTNAMGWYRQAPGKEREFVAAIRWSGSRTYYADSVKGRFTISRDNAKNTVYLQMNSLKPEDTAVYYCAVRAVWPVSYGYWYYYWGQGTQVTVSS,high polyreactivity
11,QVQLVETGGGLVQAGGSLRLSCAASGGIFVANAMGWYRQAPGKERELVAAISKRGGSTTYADSVKGRFTISRDNAKHTVYLQMNRLKPEDTAVYYCAKVVSPVYLYPSGYDYWGQGTQVTVSS,low polyreactivity
12,QVQLQESGGGLVQAGGSLRLSCAASCTISQEDCMGWYRQAPGKVREFVAAIGLGSNTNYADSLKGRFTISRDNAKNTVYLQMNRLKPEDTAVYYCAVSVWQYSDHVYRGQGTQVTVSS,low polyreactivity
13,QVQLVESGGGLVQAGGSLRLSCAASGRIFYDNAMGWYRQAPGKERELVAAISYSGDSTYYADSVKGRFTISRDNAKNTVYLQMNSLKPEDTAVYYCAAVYISQGAFAYDYWGQGTQVTVTS,low polyreactivity
14,QGQLVESGGGLVQAGGSLRLSCAASGRIFTRYALGWYRQAPGNEREFVARSTGSGGRTYYADSVKGRFSISRDNAKNTVYLQMNSLKPEDTAVYYCNARRPSWHSYDYGYADYYWGQGTQVTVSS,high polyreactivity
15,QVQLVETGGGLVQAGGTLRLSCADSGFTFHQYTMGWYIPAPGKERELVAAITGTGDTYYADSVKGRFTISRDNAKNTVYLQMNSLKPEDTAVYYCNALYVYRSVANFDYWGQGTQVTVSS,high polyreactivity
16,QVQLVESGGGLVQAGGSLRLSCAASGSTFKYYALGWYRQAPGKERELVAVITSGGSTYYADSVKGRFTISRDNAKNTVYFQMNSLKPEDTAVYYCAAGVRAYNWGEYDYWGQGTQVTVSS,low polyreactivity
